{"source": "patent US20030219427A1", "about": "“TPL-2/COT kinase and methods of use” (priority 1998, published 2003)", "molecules": {"B1": {"name": "p105498-969(ΔDD): recombinant p105 498-969 protein which lacks the p105 death domain (protein)", "chain": "QDNLFLEKAMQLAKRHANALFDYAVTGDVKMLLAVQRHLTAVQDENGDSVLHLAIIHLHSQLVRDLLEVTSGLISDDIINMRNDLYQTPLHLAVITKQEDVVEDLLRAGADLSLLDRLGNSVLHLAAKEGHDKVLSILLKHKKAALLLDHPNGDGLNAIHLAMMSNSLPCLLLLVAAGADVNAQEQKSGRTALHLAVEHDNISLAGCLLLEGDAHVDSTTYDGTTPLHIAAGRGSTRLAALLKAAGADPLVENFEPLYDLDDSWENAGEDEGVVPGTTPLDMATSWQVFDILNGKPYEPEFTSDDSPVKTTSQAHSLPLSPASTRQQIDELRDSDSVCDSGVETSFRKLSFTESLTSGASLLTLNKMPHDYGQEGPLEGKI"}}, "target": "T1, Myc-TPL-2 MEK kinase activity (Rattus norvegicus, UniProt Q63562)", "T1 construct": "made in house; host or cells: HEK 293 cells, transient transfection, anti-Myc immunoprecipitation", "experiment": "In vitro MEK kinase assay with GST-MEK1(K207A) substrate, Myc-TPL-2", "format": "biochemical", "conditions": "equivalent molar concentrations to p105498-969", "description": "Myc-TPL-2 or Myc-TPL-2ΔC were isolated by immunoprecipitation from lysates of transiently transfected 293 cells, as described above. immunoprecipitates were washed four times in Buffer A, followed by two washes in kinase buffer (50 mM Tris-pH7.5, 150 mM NaCl, 5 mM β-glycerophosphate, 2 mM dithiothreitol, 0.1 mM sodium vanadate, 10 mM MgCl2, 1 mM EGTA, 0.01% Brij35). Beads were then resuspended in 50μl of kinase buffer plus the indicated amounts of recombinant p105 protein and incubated at 4° C. for 30 min. […] The supernatant was removed, mixed with an equal volume of 2×sample buffer, Western blotted after 8%-acrylamide SDS-PAGE and probed with anti-phospho-MEK-½ antibody. Immunoprecipitated Myc-TPL-2 or Myc-TPL-2ΔC was eluted with Laemlli sample buffer from the remaining anti-Myc mAb beads and quantified by Western blotting.\nOnly a small fraction of over-expressed Myc-TPL-2 is associated with p105, presumably due to titration of endogenous p105 protein. The effect of p105 binding on Myc-TPL-2 MEK kinase activity was investigated by incubation of TPL-2 imnmunoprecipitates with recombinant p105498-969 protein prior to in vitro kinase assay. MEK phosphorylation was assayed by Western blotting with anti-phospho-MEK-½ antibody. Control experiments confirmed that p105498-969 protein bound to TPL-2 in vitro. […]", "data": [{"molecule": "B1", "values": [{"measurement": "effect on Myc-TPL-2 MEK kinase activity", "value": "did not affect"}]}]}
